Source: the RNAGym collection of RNA variant scans (doi:10.1093/molbev/msab373)

B1: Azoarcus group I ribozyme (parent)
chain: GUGCCUUGCGCCGGGAAACCACGCAAGGGAUGGUGUCAAAUUCGGCGAAACCUAAGCGCCCGCCCGGGCGUAUGGCAACGCCGAGCCAAGCUUCGGCGCCUGCGCCGAUGAAGGUGUAGAGACUAGACGGCACCCACCUAAGGCAAACGCUAUGGUGAAGGCAUAGUCCAGGGAGUGGCGAAAGUCACACAAACCGG

Variants of: B1
Test: reverse-splicing fitness (ratio to wild type); higher = more active; in vitro selection; Mg2+ level not given
Method in brief: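 An in vitro group I ribozyme library with randomized positions was T7-transcribed and gel-purified. In triplicate, 10 pmol RNA in EPPS pH 7.5 was reacted with 50 pmoles of a 30-nt RNA substrate for 1 h at 37 °C across several added MgCl2 levels (1–48 mM), then stopped with EDTA. Products were reverse transcribed from a substrate-complementary primer, PCR-amplified and sequenced (HiSeq 4000). Fitness is a variant's read proportion after selection over that before, normalised to wild type.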

Variant | reverse-splicing fitness
C82A A120G C150G U176C | 0.00829
C82A A120G C150G U176A | 0.00568
C82A A120G C150G U176G | 0.00336
C82A A120G A145G C150A U176A | 0.0108
C82A A120G A145G C150A U176C | 0.0213
C82A A120G A145G C150A U176G | 0.00779
C82A A120G A145U C150G C169U U176G | 0.00511
C82A A120G A145U C150G C169U U176C | 0.0127
C82A A120G A145U C150G C169U U176A | 0.0124
C82A A120G A145U C150A C169A U176C | 0.0115
C82A A120G A145U C150A C169A U176G | 0.00386
C82A A120G A145U C150A C169A U176A | 0.0132
C82A A120G A145U C150A C169G | 0.00799
C82A A120G A145U C150A C169A | 0.00876
C82A A120G A145U C150A C169U | 0.0066
C82A A120G A145U C150U C169A U176G | 0.00418
C82A A120G A145U C150U C169A U176C | 0.0113
C82A A120G A145U C150U C169A U176A | 0.013
C82A A120G A145U C150A C169G U176G | 0.00358
C82A A120G A145U C150A C169G U176C | 0.0154
C82A A120G A145U C150A C169G U176A | 0.0133

Variant | reverse-splicing fitness
C82A A120C C150A C169A U176A | 0.0213
C82A A120C C150A C169A U176G | 0.00801
C82A A120C C150A C169A U176C | 0.0227
C82A A120G A145U C150G U176C | 0.00721
C82A A120G A145U C150G U176G | 0.00365
C82A A120G A145U C150G U176A | 0.00629
C82A A120G C150U C169A | 0.0136
C82A A120G C150U C169G | 0.0157
C82A A120G C150U C169U | 0.0111
C82A A120G A145G U176C | 0.021
C82A A120G A145G U176A | 0.0143
C82A A120G A145G U176G | 0.00561
C82A A120G A145U C169A U176A | 0.0104
C82A A120G A145U C169A U176G | 0.00321
C82A A120G A145U C169A U176C | 0.00947
C82A A120G A145C C150G C169A U176C | 0.00611
C82A A120G A145C C150G C169A U176A | 0.00899
C82A A120G A145C C150G C169A U176G | 0.00399
C82A A120G A145C C169G U176A | 0.0259
C82A A120G A145C C169G U176G | 0.00403
C82A A120G A145C C169G U176C | 0.0162

Variant | reverse-splicing fitness
C82A A120G A145C C150U C169G U176A | 0.0208
C82A A120G A145C C150U C169G U176C | 0.0116
C82A A120G A145C C150U C169G U176G | 0.00468
C82A A120G A145U C169G U176G | 0.00322
C82A A120G A145U C169G U176A | 0.0118
C82A A120G A145U C169G U176C | 0.0144
C82A A120G A145C C150A C169G U176G | 0.00464
C82A A120G A145C C150A C169G U176C | 0.0138
C82A A120G A145C C150A C169G U176A | 0.0238
C82A A120G C150G C169U U176C | 0.0133
C82A A120G C150G C169U U176G | 0.00654
C82A A120G C150G C169U U176A | 0.0119
C82A A120G C150G C169A U176G | 0.00619
C82A A120G C150G C169A U176C | 0.0109
C82A A120G C150G C169A U176A | 0.0116
C82A A120G A145U C169U | 0.0145
C82A A120G A145U C169A | 0.0137
C82A A120G A145U C169G | 0.0204
C82A A120G A145U C150U C169U U176C | 0.0174
C82A A120G A145U C150U C169U U176A | 0.0201
C82A A120G A145U C150U C169U U176G | 0.00449

Variant | reverse-splicing fitness
C82A A120G A145C C169U | 0.0141
C82A A120G A145C C169G | 0.0188
C82A A120G A145C C169A | 0.0124
C82A A120U A145C | 0.128
C82A A120G C150U C169A U176C | 0.0163
C82A A120G C150U C169A U176G | 0.00471
C82A A120G C150U C169A U176A | 0.0169
C82A A120G A145U C150G C169A U176A | 0.0097
C82A A120G A145U C150G C169A U176G | 0.00378
C82A A120G A145U C150G C169A U176C | 0.01
C82A A120C C150U C169U U176A | 0.0167
C82A A120C C150U C169U U176G | 0.00589
C82A A120C C150U C169U U176C | 0.0147
C82A A120G A145G C169U U176C | 0.0195
C82A A120G A145G C169U U176G | 0.0046
C82A A120G A145G C169U U176A | 0.022
C82A A120G C169G U176C | 0.0274
C82A A120G C169G U176G | 0.00368
C82A A120G C169G U176A | 0.0203
C82A A120G A145C C150G | 0.0075
